One experiment concerns the target T1, human FcRH5 (Homo sapiens, UniProt Q96RD9).
T1 construct: expressed in transfected cells; host or cells: OPM2 multiple myeloma line per text
T1 sequence (Q96RD9 16-977 Y267H/G418D/V466I/L733P/S890P): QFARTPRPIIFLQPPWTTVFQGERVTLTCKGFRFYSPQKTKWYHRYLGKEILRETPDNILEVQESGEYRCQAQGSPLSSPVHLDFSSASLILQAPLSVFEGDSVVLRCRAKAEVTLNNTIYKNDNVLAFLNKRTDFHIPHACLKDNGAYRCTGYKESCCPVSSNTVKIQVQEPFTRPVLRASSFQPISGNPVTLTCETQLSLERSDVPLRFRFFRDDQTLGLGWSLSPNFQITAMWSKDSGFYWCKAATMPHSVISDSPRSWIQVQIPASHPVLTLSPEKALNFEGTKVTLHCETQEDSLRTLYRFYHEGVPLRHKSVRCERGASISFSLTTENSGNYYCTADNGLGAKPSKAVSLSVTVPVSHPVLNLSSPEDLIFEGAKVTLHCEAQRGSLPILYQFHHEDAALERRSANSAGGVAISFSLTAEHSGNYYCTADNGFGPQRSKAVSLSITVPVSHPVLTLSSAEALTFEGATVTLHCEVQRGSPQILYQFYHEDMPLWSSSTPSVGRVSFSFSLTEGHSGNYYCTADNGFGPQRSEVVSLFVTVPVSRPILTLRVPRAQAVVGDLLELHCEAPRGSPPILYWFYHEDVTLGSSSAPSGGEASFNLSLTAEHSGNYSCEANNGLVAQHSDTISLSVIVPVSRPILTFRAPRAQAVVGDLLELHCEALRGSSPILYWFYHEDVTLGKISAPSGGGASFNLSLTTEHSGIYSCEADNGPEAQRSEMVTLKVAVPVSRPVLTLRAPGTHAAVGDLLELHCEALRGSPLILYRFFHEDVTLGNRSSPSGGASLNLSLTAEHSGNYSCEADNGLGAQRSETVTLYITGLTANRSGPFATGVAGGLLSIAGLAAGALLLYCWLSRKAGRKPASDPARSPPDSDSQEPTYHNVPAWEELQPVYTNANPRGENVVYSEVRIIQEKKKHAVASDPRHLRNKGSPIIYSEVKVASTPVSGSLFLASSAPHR
Description: Affinity determination (Scatchard analysis), cells expressing human FcRH5. The class given is binding. Conditions: FACS and Scatchard analysis. Here is the method:
To further determine binding of the FcRH5 murine antibodies and IgG clones, binding of iodinated IgG variants to OPM2 cells expressing human FcRH5 and SVT2 cells expressing cynomologous FcRH5, Scatchard analysis was performed (Table 9A).
After a four hour incubation at 4° C., cells were washed and cell pellet counts were read by a gamma counter (1470 WIZARD Automatic Gamma Counter; Perkin Elmer, Walthem, Mass.). All points were done in triplicate and counted for 10 minutes. The average CPM was used for Kd calculation using the New Ligand (Genentech, South San Francisco, Calif.) program.

In another experiment the test system is cynomolgus FcRH5. Description: Cyno X-reactivity (FACS) on stable transfected cells. The class given is binding. To be noted: SVT2 cells stably expressing cynoFcRH5; 1.0, 0.1 or 0.01 ug Ab per million cells. Here is the method:
For additional FACS analysis of FcRH5 antibodies, 1.0 μg, 0.1 μg or 0.01 μg of antibody was titrated per million cells of BJAB cells stably expressing huFcRH5 and SVT2 cells stably expressing cynoFcRH5. Briefly, approximately 10^6 cells in 100 μl were incubated with varying amounts (1.0 ug, 01. ug or 0.01 ug) of murine Ab (‘mu1H4, mu4D10, mu6H1, mu7D11, mu9E2, mu10A8, mu140F5, or mu13G9) per million cells of BJAB cells stably expressing huFcRH5 and SVT2 cells stably expressing cynoFcRH5. Incubation with 1.0 ug/10^6 cells of the appropriate Mu IgG isotype control was used as a negative control. PE conjugated Rat anti-MuIgG1 or Rat anti-MuIgG2a+b was used as the secondary detection antibody.

Sequence of cynomolgus FcRH5 (as listed by the source): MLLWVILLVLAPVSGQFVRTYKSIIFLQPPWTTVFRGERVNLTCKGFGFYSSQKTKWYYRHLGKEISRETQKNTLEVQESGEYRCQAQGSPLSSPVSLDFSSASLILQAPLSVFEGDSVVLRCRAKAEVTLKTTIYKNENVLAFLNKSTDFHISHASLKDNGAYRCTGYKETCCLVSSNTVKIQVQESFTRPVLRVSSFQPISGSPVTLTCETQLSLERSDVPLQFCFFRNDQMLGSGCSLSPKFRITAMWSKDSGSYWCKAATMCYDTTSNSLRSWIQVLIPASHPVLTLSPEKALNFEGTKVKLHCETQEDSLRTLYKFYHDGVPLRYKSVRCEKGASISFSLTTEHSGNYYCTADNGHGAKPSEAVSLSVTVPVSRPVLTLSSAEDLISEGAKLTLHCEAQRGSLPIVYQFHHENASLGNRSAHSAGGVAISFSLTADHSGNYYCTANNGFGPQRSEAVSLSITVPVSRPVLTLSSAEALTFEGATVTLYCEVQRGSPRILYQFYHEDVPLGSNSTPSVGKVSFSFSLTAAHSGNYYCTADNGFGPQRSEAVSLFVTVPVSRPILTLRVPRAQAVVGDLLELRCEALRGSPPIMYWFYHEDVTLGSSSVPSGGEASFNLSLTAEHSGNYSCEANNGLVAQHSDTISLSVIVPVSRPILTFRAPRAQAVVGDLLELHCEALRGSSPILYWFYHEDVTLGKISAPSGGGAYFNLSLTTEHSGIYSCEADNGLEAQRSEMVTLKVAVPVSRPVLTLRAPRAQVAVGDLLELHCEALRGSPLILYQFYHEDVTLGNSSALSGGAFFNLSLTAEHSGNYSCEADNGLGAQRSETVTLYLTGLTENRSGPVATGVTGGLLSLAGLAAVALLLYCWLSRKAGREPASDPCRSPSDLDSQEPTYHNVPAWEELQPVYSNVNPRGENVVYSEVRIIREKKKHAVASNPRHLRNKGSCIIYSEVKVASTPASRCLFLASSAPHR

B1: hu13G9.1a: humanized 13G9 version 1; VL SEQ ID NO: 19, VH SEQ ID NO: 21 (antibody, V domains shown)
VH: EVQLVQSGGGLVQPGGSLRLSCAASGYTFTNYGMNWVRQAPGKGLEWVGWVNTYTGEPTYTDDFKGRFTFSVDTSKSTVYLQMNSLRAEDTAVYYCARRSIPYYYAMDYWGQGTLVTVS
VL: DIQMTQSPSSLSASVGDRVTITCKASQNVGSNVAWYQQKPGKAPKALIYSASYRYSGVPSRFSGSGSGTDFTLTISSLQPEDFATYYCQQYKTWTFGQGTKVEIKR
B1: the “Binding to cells expressing FcRH5 compared with the chimera” value in the experiment with human FcRH5 was “essentially equivalent to the chimera”.

B2: 13G9: murine monoclonal antibody binding human FcRH5; variable chains SEQ ID NO: 18 and 20 (antibody, listed as Mus sp., V domains shown)
VL: DIVMTQSQKIMSTSVGDRVNVTCKASQNVGSNVAWYHQKPGQSPKALIYSASYRYSGVPDRFTGSGSGTDFTLTISNVQSEDLAEYFCQQYKTWTFGGGTKLEIKR
VH: EVQLVQSGPELKKPGETVKISCKASGYTFTNYGMNWVKQAPGKGLKWMGWVNTYTGEPTYTDDFKGRFAFSVETSASTVFLQINNLKNEDTATYFCARRSIPYYYAMDYWGQGTSLT
In the case of B2, the “Cross reactivity with cynomolgus FcRH5 by FACS analysis” value in the experiment with cynomolgus FcRH5 was “cross react with cynomolgus FcRH5”.

These data come from US9017951B2, “Anti-FcRH5 antibodies and immunoconjugates and methods of use” (Genentech, Inc., priority 2009, dated 2015).
